T1: Soluble ASGR-1 (human, UniProt P07306 62-291, biotinylated)
T1 construct: Soluble recombinant protein; also called recombinant, soluble ASGR-1 biotinylated protein
T1 sequence: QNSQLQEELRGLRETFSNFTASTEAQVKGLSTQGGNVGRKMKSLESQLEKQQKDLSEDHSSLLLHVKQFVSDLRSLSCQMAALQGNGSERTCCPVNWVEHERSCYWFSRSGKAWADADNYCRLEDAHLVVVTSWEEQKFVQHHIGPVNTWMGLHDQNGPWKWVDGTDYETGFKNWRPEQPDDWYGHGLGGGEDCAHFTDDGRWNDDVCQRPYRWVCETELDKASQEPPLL

T2: Rat ASGR-1 (rat, UniProt P02706 1-284)
T2 construct: Expressed on HEK 293 cells or as membrane prep on beads; cDNA GenBank NM_012503
T2 sequence: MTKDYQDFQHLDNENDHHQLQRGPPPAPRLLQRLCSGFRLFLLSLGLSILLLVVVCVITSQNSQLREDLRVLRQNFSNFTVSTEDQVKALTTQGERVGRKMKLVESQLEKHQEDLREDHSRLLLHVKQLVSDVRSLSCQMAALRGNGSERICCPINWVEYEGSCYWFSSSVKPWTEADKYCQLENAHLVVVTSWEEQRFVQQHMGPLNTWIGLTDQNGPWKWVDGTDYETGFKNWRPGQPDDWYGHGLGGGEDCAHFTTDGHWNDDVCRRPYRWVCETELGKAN

T3: Pig ASGR-1 (pig)
T3 construct: Expressed on HEK 293 cells or as membrane prep on beads; cDNA GenBank NM_001244458
T3 chain: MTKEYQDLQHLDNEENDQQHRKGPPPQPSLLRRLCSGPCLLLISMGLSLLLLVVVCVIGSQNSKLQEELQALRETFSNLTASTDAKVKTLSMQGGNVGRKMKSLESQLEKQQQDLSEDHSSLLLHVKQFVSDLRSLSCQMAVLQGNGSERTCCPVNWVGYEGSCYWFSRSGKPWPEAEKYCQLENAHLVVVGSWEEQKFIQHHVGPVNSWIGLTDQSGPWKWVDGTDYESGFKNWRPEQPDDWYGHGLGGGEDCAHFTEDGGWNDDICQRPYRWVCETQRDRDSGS

T4: Dog ASGR-1 (dog)
T4 construct: Expressed on HEK 293 cells or as membrane prep on beads; cDNA GenBank XM_546579
T4 chain: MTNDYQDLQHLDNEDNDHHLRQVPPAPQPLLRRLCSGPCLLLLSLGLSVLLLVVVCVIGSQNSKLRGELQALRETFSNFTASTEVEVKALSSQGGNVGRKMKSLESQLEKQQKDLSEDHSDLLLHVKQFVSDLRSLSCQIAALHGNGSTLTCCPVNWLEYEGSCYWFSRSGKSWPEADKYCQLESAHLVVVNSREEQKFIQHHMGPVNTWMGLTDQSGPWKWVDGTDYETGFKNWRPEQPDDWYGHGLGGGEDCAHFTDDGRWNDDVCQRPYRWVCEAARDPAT


What was measured:
Soluble ASGR-1 = molecular target: T1, Soluble ASGR-1; experiment: limited antigen binding assay; biotinylated soluble ASGR-1 coated at 2.5 ng/mL on LumAvidin beads, FACS
Rat ASGR-1 [1] = molecular target: T2, Rat ASGR-1; experiment: FACS on transfected HEK 293 cells or membrane preps on beads; Y = signal at least 2x irrelevant IgG
In short: (§1)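 Antibodies at normalized concentrations bound 1 h at 4° C to HEK 293 cells expressing each antigen, then Alexa Fluor 647 anti-Fc plus 7-AAD 15 min at 4° C, flow cytometry; empty-vector cells as negative. Alternatively, species ASGR-1 membrane preps on streptavidin beads, antibody 1 h RT, Alexa Fluor 488 anti-Fc; FACS buffer with 1 mM CaCl2 throughout.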

Pig ASGR-1 = molecular target: T3, Pig ASGR-1; experiment: FACS on transfected HEK 293 cells or membrane preps on beads; binding = signal at least 2x irrelevant IgG
In short: as §1

Dog ASGR-1 [2] = molecular target: T4, Dog ASGR-1; experiment: as above
In short: as §1

Rat ASGR-1 [3] = molecular target: T2, Rat ASGR-1; experiment: as above
In short: as §1

Dog ASGR-1 [4] = molecular target: T4, Dog ASGR-1; experiment: FACS on transfected HEK 293 cells or membrane preps on beads; Y = signal at least 2x irrelevant IgG
In short: as §1

| FACS Geomean (Soluble ASGR-1) [FACS Geomean] | binding result (Rat ASGR-1 [1]) | binding result (Pig ASGR-1) | binding result (Dog ASGR-1 [2]) | binding result (Rat ASGR-1 [3]) | binding result (Dog ASGR-1 [4]) | Binder |
| --- | --- | --- | --- | --- | --- | --- |
| 2290 | binds | no binding | no binding | – | – | 6G7 (antibody, V domains shown, Tested as hybridoma supernatant at normalized concentration) VH: QVQLVESGGGVVQPGRSLRLSCAASGFTFSSYGMHWVRQTPGKGLEWVAIISYVGKNKYYADSVKGRFTISRDNSKNTLYLQMNSLRAEDTAVYYCARRGNSYGGYGMDVWGQGTTVTVSS VL: DIQMTQSPSSRSASVGDRVTITCQASQDISNYLNWCQQKPGKALKLLIYDASTLETGVPSRFSGSGSGTDFTFTISSVQPEDIATYYCQQYDNVPITFGQGTRLEIK |
| 3280 | binds | no binding | no binding | – | – | 5E5 (antibody, V domains shown, Tested as hybridoma supernatant at normalized concentration) VH: QVQLVESGGGVVQPGRSLRLSCAASGFTFSNYVMHWVRQAPGKGLEWVAVIWYDGSNKYYADSVKGRFTISRDNSKNTLYLQMNSLRAEDTAVYYCTREVYSSGWYDYGMDVWGQGTTVTVSS VL: DIQMTQSPSSLSASVGDRVTITCRASQGIRNDLGWYQQKPGKAPKRLIYAASSLQSGVPSRFSGSGSGTEFTLTISSLQPEDFATYYCLQHYSYPRTFGQGTKVEVK |
| 1080 | – | no binding | no binding | no binding | – | 22G5 (antibody, V domains shown, Tested as hybridoma supernatant at normalized concentration) VH: EVQLLESGGGLVQPGGSLRLSCAASGFTFSSYAMNWVRQAPGMGLEWVSVISRSGGYTYYADSVKGRFTISRDNSKNTLYLQMNSLRAEDTAVYYCASRLAVAGSEAFDIWGQGTLVTVSS VL: DIQMTQSPSSLSASVGDRVTITCRASQNISSYLNWYQQKQGKAPKLLIYAASSLQNGVPSRFSGRGSGTDFTLTISSLQPEDFATYYCQQSYRTPLFTFGPGTKVDFK |
| 6490 | – | no binding | – | no binding | binds | 54E9 (antibody, V domains shown, Tested as hybridoma supernatant at normalized concentration) VH: QVQLVQSGAEVKKPGASVKVSCKASGYTFNSYGISWVRLAPGQGLEWMGWISAYNGNTKNAQKLQGRVTMTTDTSTSTAYMELRSLRSDDTAVYYCARHDFWSGYYKGMDVWGQGTTVTVSS VL: not shown |
